In patent US20200157212A1 (Pfizer, published 2020):

How the values were obtained:
[1] = target: T1, Terbium (Tb) labeled-SNAP tagged ROBO2 expressed on HEK293 cells (Homo sapiens (Human), UniProt Q9HCK4 22-1378, terbium label on the SNAP tag); assay: HTRF competition, competitor d2-SLIT2-N, ROBO2 HEK293 cells
T1 construct: also called Tb-labeled ROBO2 cells; ROBO2 expressing cells; not shown: SNAP tag
T1 sequence: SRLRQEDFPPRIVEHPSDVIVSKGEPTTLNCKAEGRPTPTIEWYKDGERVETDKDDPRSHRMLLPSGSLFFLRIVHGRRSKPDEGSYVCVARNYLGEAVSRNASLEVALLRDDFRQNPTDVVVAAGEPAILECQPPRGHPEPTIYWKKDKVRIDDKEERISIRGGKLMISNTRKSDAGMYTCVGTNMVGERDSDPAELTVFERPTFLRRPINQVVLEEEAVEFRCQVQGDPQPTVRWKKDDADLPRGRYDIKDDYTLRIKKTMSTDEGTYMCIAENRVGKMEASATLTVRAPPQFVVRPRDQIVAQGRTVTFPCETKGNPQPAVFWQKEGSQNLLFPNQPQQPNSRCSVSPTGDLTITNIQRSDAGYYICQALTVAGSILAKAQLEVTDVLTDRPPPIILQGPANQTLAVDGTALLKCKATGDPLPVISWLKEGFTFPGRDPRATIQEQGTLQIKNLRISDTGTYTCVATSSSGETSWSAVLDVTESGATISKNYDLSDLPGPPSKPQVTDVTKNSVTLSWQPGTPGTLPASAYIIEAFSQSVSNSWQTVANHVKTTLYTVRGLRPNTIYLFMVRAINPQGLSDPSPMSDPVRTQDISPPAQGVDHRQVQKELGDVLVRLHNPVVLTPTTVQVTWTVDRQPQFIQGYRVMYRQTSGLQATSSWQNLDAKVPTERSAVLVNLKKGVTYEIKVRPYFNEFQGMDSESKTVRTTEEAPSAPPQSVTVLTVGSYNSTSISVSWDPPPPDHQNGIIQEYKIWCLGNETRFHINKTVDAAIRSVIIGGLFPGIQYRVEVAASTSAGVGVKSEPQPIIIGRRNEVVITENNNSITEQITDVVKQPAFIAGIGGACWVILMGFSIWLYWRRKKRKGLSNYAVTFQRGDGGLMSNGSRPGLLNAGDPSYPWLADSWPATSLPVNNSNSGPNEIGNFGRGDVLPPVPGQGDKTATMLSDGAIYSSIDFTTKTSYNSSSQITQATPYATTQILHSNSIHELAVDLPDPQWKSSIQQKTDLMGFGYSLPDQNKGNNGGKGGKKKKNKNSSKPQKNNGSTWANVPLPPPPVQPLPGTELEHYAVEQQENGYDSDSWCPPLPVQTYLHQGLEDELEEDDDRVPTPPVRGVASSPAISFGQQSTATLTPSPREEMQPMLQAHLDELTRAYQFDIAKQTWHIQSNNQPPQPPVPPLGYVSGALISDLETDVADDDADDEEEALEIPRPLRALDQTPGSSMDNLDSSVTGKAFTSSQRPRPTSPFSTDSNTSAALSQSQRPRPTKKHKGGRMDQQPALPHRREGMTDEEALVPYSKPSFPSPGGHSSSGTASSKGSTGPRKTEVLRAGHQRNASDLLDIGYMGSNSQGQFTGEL
Experimental: (§1) Antibodies generated as a result of the affinity maturation campaign were screened by numerous assays for neutralization of SLIT2-N binding, selective binding to ROBO2 over ROBO1, and inhibition of SLIT2-N functional activity (see Table 2). A ROBO2-SLIT2-N homogenous time resolved fluorescence (HTRF) assay was used to identify antibodies that were capable of blocking SLIT2-N binding to ROBO2. In this assay, terbium (Tb) labeled-SNAP tagged ROBO2 expressing HEK293 cells were incubated with 5 nM d2-labeled SLIT-2N in the presence of 1 nM anti-ROBO2 antibodies for 1 hour. After incubation, fluorescence at 665 nm and 620 nm was measured on an Envision multilabel plate reader. […] Maximal signal was defined as the HTRF ratio of Tb-labeled ROBO2 cells with d2-labeled SLIT2-N in the absence of antibody, the minimum signal was defined as the HTRF ratio of Tb-labeled ROBO2 expressing HEK293 cells only. One nanomolar (nM) parental antibody, 93H2, was unable to block the HTRF assay, therefore this concentration was selected to identify clones with a higher affinity than 93H2 (Table 2, HTRF Ratio column). […] Antibodies derived from chain (Abcs series) or CDR shuffling (CTIR-2 series) were evaluated in 11-point, 5-fold dilution series with a top concentration of 1500 nM (Table 2 HTRF IC₅₀).

[2] = target: T1, Terbium (Tb) labeled-SNAP tagged ROBO2 …; assay: HTRF, 5 nM d2-SLIT2-N on Tb-SNAP-ROBO2 HEK293 cells, 1 nM antibody
Experimental: as §1, with “In” for “Antibodies generated as a result of the affinity maturation campaign were screened by numerous assays for neutralization of SLIT2-N binding, selective binding to ROBO2 over ROBO1, and inhibition of SLIT2-N functional activity (see Table 2). A ROBO2-SLIT2-N homogenous time resolved fluorescence (HTRF) assay was used to identify antibodies that were capable of blocking SLIT2-N binding to ROBO2. In”
HTRF assays were run with 5 nM d2-labeled SLIT2-N and antibodies were added at 1 nM. […] Antibodies derived from chain (Abcs series) or CDR shuffling (CTIR-2 series) were evaluated in 11-point, 5-fold dilution series with a top concentration of 1500 nM, N.T. = not tested; ^cFold selectivity was calculated as Geometric Mean Fluorescent Intensity (Geo MFI) of ROBO2/Geo MFI of ROBO1 binding.

B1: CTIR2-1 (antibody, human IgG1, kappa, V domains shown)
VH: EVQLVQSGAEVKKPGASVKVSCKASGYTFTGYYMHWVRQAPGQGLEWMGWINPRSGATNFPQKFQGRVTMTRDTSITTAYMDLSRLRSDDTAVYYCARESGDDAFDIWGQGTMVTVSS
VL: DIVMTQSPSSLSASVGDRVTITCRASQSISSYLNWYQQKPGKAPKLLIYAASSLQYGVPSRFSGSGSGTDFTLTISSLQPEDFATYYCQQSLELGFGGGTKVEIKR
notes: CDR-shuffled IgG
B1 was tested, and the IC50 [1] was 0.159 nM and the “HTRF Ratio” value [2] was 4540.

B2: CTIR2-5 (antibody, human IgG1, kappa, V domains shown)
VH: EVQLVQSGAEVKKPGASVKVSCKASGYTFTGYYMHWVRQAPGQGLEWMGWINPKSGATNFPQKFQGRVTMTRDTSITTAYMDLSRLRSDDTAVYYCARESGDDAFDIWGQGTMVTVSS
VL: DIVMTQSPSSLSASVGDRVTITCRASQKISSYLNWYQQKPGKAPKLLIYAASSLQSGVPSRFSGSGSGTDFTLTISSLQPEDFATYYCQQSLELGFGGGTKVEIKR
notes: CDR-shuffled IgG
With B2 the IC50 [1] was 0.165 nM and the “HTRF Ratio” value [2] was 5180.

B3: CTIR2-11 (antibody, human IgG1, kappa, V domains shown)
VH: EVQLVQSGAEVKKPGASVKVSCKASGYTFRGYAMHWVRQAPGQGLEWMGWIDPRTGLTKFPQKFQGRVTMTRDTSITTAYMDLSRLRSDDTAVYYCARESGDDAFDIWGQGTMVTVSS
VL: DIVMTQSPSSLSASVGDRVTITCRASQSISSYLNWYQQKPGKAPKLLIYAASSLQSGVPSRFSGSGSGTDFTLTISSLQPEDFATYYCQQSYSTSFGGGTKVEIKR
notes: CDR-shuffled IgG
In the case of B3, the IC50 [1] is reported as 0.182 nM and the “HTRF Ratio” value [2] is reported as 4780.

B4: CTIR2-7 (antibody, human IgG1, kappa, V domains shown)
VH: EVQLVQSGAEVKKPGASVKVSCKASGYTFTGYYMHWVRQAPGQGLEWMGWINPKSGATNFPQKFQGRVTMTRDTSITTAYMDLSRLRSDDTAVYYCARESGDDAFDIWGQGTMVTVSS
VL: DIVMTQSPSSLSASVGDRVTITCRASQKISSYLNWYQQKPGKAPKLLIYAASSLQYGVPSRFSGSGSGTDFTLTISSLQPEDFATYYCQQSLELGFGGGTKVEIKR
notes: CDR-shuffled IgG
B4 was tested, and the IC50 [1] was 0.136 nM and the “HTRF Ratio” value [2] was 3670.

B5: CTIR2-4 (antibody, human IgG1, kappa, V domains shown)
VH: EVQLVQSGAEVKKPGASVKVSCKASGYTFTGYYMHWVRQAPGQGLEWMGWINPKSGATNFPQKFQGRVTMTRDTSITTAYMDLSRLRSDDTAVYYCARESGDDAFDIWGQGTMVTVSS
VL: DIVMTQSPSSLSASVGDRVTITCRASQKISSYLNWYQQKPGKAPKLLIYAASSLQYGVPSRFSGSGSGTDFTLTISSLQPEDFATYYCQQSYSTSFGGGTKVEIKR
notes: CDR-shuffled IgG
B5 was tested, and the IC50 [1] was 0.38 nM and the “HTRF Ratio” value [2] was 6170.

B6: CTIR2-8 (antibody, human IgG1, kappa, V domains shown)
VH: EVQLVQSGAEVKKPGASVKVSCKASGYTFTGYYMHWVRQAPGQGLEWMGWINPKSGATNFPQKFQGRVTMTRDTSITTAYMDLSRLRSDDTAVYYCARESGDDAFDIWGQGTMVTVSS
VL: DIVMTQSPSSLSASVGDRVTITCRASQKISSYLNWYQQKPGKAPKLLIYAASSLQYGVPSRFSGSGSGTDFTLTISSLQPEDFATYYCQQSVGLSFGGGTKVEIKR
notes: CDR-shuffled IgG
B6 was tested, and the IC50 [1] was 0.108 nM and the “HTRF Ratio” value [2] was 3860.

B7: CTIR2-2 (antibody, human IgG1, kappa, V domains shown)
VH: EVQLVQSGAEVKKPGASVKVSCKASGYTFTGYYMHWVRQAPGQGLEWMGWINPRSGATNFPQKFQGRVTMTRDTSITTAYMDLSRLRSDDTAVYYCARESGDDAFDIWGQGTMVTVSS
VL: DIVMTQSPSSLSASVGDRVTITCRASQSISSYLNWYQQKPGKAPKLLIYAASSLQYGVPSRFSGSGSGTDFTLTISSLQPEDFATYYCQQSVGLSFGGGTKVEIKR
notes: CDR-shuffled IgG
With B7 the IC50 [1] was 0.109 nM and the “HTRF Ratio” value [2] was 4330.

B8: CTIR2-3 (antibody, human IgG1, kappa, V domains shown)
VH: EVQLVQSGAEVKKPGASVKVSCKASGYTFTGYYMHWVRQAPGQGLEWMGWINPRSGATNFPQKFQGRVTMTRDTSITTAYMDLSRLRSDDTAVYYCARESGDDAFDIWGQGTMVTVSS
VL: DIVMTQSPSSLSASVGDRVTITCRASQSISSYLNWYQQKPGKAPKLLIYAASSLQYGVPSRFSGSGSGTDFTLTISSLQPEDFATYYCQQSVGLFFGGGTKVEIKR
notes: CDR-shuffled IgG
In the case of B8, the IC50 [1] is reported as 0.154 nM and the “HTRF Ratio” value [2] is reported as 4050.

B9: CTIR2-12 (antibody, human IgG1, kappa, V domains shown)
VH: EVQLVQSGAEVKKPGASVKVSCKASGYTFRGYAMHWVRQAPGQGLEWMGWIDPRTGLTKFPQKFQGRVTMTRDTSITTAYMDLSRLRSDDTAVYYCARESGDDAFDIWGQGTMVTVSS
VL: DIVMTQSPSSLSASVGDRVTITCRASQKISSYLNWYQQKPGKAPKLLIYAASSLQSGVPSRFSGSGSGTDFTLTISSLQPEDFATYYCQQSYSTSFGGGTKVEIKR
notes: CDR-shuffled IgG
For B9, the IC50 [1] was 0.076 nM and the “HTRF Ratio” value [2] was 4580.
